# US20140087995A1 (published 2014)
# Numbered stars: 1 amine (or outer) side, 2 acyl side, 3 side chain; on linkers, the order of the positions; unused ones are H or OH. Bridge positions count the residues as written; N and C are the ends. Side chains are listed from the residue outwards. Ends that are not written are not given here. * marks the point of attachment. C20 diacid = O=C(O)CCCCCCCCCCCCCCCCCCC(=O)*; γGlu = O=C(O)[C@H](CCC(=O)[*:2])N[*:1]; AEEA = NCCOCCOCC(=O)O
# T1: human calcitonin receptor (human, UniProt P30988 25-474)
# T1 construct: whole, on cells; Used as cell membranes; also called hCTR; hCT
# T1 sequence (looked up): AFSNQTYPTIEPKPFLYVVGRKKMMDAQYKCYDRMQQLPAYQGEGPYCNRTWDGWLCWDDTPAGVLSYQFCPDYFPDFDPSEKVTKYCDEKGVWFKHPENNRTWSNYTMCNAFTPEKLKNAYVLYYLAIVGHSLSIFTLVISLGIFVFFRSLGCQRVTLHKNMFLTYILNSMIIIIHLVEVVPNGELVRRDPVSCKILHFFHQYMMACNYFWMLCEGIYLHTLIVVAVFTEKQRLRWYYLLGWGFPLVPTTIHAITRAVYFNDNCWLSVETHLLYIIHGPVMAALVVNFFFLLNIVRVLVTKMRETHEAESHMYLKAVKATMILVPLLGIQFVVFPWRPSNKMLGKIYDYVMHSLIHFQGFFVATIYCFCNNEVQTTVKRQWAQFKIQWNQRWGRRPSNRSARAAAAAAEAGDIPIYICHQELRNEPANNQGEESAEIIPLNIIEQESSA
# B1: N^ε1-[2-[2-[2-[[2-[2-[2-[[(4S)-4-carboxy-4-(19-carboxynonadecanoylamino)butanoyl]amino]ethoxy]ethoxy]acetyl]amino]ethoxy]ethoxy]acetyl]-[Arg17,Pro21,Pro27,Pro31 … (peptide)
# peptide: K([AEEA-AEEA-γGlu-C20 diacid])CNTATCATQRLANFLRHSSPNFGAIPSSTPVGSNTY-NH2
# modifications: disulfide 2-7; N-terminus assumed
# SMILES: CC[C@H](C)[C@H](NC(=O)[C@H](C)NC(=O)CNC(=O)[C@H](Cc1ccccc1)NC(=O)[C@H](CC(N)=O)NC(=O)[C@@H]1CCCN1C(=O)[C@H](CO)NC(=O)[C@H](CO)NC(=O)[C@H](Cc1c[nH]cn1)NC(=O)[C@H](CCCNC(=N)N)NC(=O)[C@H](CC(C)C)NC(=O)[C@H](Cc1ccccc1)NC(=O)[C@H](CC(N)=O)NC(=O)[C@H](C)NC(=O)[C@H](CC(C)C)NC(=O)[C@H](CCCNC(=N)N)NC(=O)[C@H](CCC(N)=O)NC(=O)[C@@H](NC(=O)[C@H](C)NC(=O)[C@@H]1CSSC[C@H](NC(=O)[C@@H](N)CCCCNC(=O)COCCOCCNC(=O)COCCOCCNC(=O)CC[C@H](NC(=O)CCCCCCCCCCCCCCCCCCC(=O)O)C(=O)O)C(=O)N[C@@H](CC(N)=O)C(=O)N[C@@H]([C@@H](C)O)C(=O)N[C@@H](C)C(=O)N[C@@H]([C@@H](C)O)C(=O)N1)[C@@H](C)O)C(=O)N1CCC[C@H]1C(=O)N[C@@H](CO)C(=O)N[C@@H](CO)C(=O)N[C@H](C(=O)N1CCC[C@H]1C(=O)N[C@H](C(=O)NCC(=O)N[C@@H](CO)C(=O)N[C@@H](CC(N)=O)C(=O)N[C@H](C(=O)N[C@@H](Cc1ccc(O)cc1)C(N)=O)[C@@H](C)O)C(C)C)[C@@H](C)O
# notes: also called compound 96
# B2: N^ε1-[2-[2-[2-[[2-[2-[2-[[(4S)-4-carboxy-4-(19-carboxynonadecanoylamino)butanoyl]amino]ethoxy]ethoxy]acetyl]amino]ethoxy]ethoxy]acetyl]-[Arg17,Pro21,Pro27,Pro34 … (peptide)
# peptide: K([AEEA-AEEA-γGlu-C20 diacid])CNTATCATQRLANFLRHSSPNFGAIPSSTNVGPNTY-NH2
# modifications: disulfide 2-7; N-terminus assumed
# SMILES: CC[C@H](C)[C@H](NC(=O)[C@H](C)NC(=O)CNC(=O)[C@H](Cc1ccccc1)NC(=O)[C@H](CC(N)=O)NC(=O)[C@@H]1CCCN1C(=O)[C@H](CO)NC(=O)[C@H](CO)NC(=O)[C@H](Cc1c[nH]cn1)NC(=O)[C@H](CCCNC(=N)N)NC(=O)[C@H](CC(C)C)NC(=O)[C@H](Cc1ccccc1)NC(=O)[C@H](CC(N)=O)NC(=O)[C@H](C)NC(=O)[C@H](CC(C)C)NC(=O)[C@H](CCCNC(=N)N)NC(=O)[C@H](CCC(N)=O)NC(=O)[C@@H](NC(=O)[C@H](C)NC(=O)[C@@H]1CSSC[C@H](NC(=O)[C@@H](N)CCCCNC(=O)COCCOCCNC(=O)COCCOCCNC(=O)CC[C@H](NC(=O)CCCCCCCCCCCCCCCCCCC(=O)O)C(=O)O)C(=O)N[C@@H](CC(N)=O)C(=O)N[C@@H]([C@@H](C)O)C(=O)N[C@@H](C)C(=O)N[C@@H]([C@@H](C)O)C(=O)N1)[C@@H](C)O)C(=O)N1CCC[C@H]1C(=O)N[C@@H](CO)C(=O)N[C@@H](CO)C(=O)N[C@H](C(=O)N[C@@H](CC(N)=O)C(=O)N[C@H](C(=O)NCC(=O)N1CCC[C@H]1C(=O)N[C@@H](CC(N)=O)C(=O)N[C@H](C(=O)N[C@@H](Cc1ccc(O)cc1)C(N)=O)[C@@H](C)O)C(C)C)[C@@H](C)O
# notes: also called compound 98
# B3: N^ε1-[2-[2-[2-[[(4S)-4-carboxy-4-(19-carboxynonadecanoylamino)butanoyl]amino]ethoxy]ethoxy]acetyl]-[Ala14,Arg17,Pro21,Pro27,Pro31]-h-amylin (peptide)
# peptide: K([AEEA-γGlu-C20 diacid])CNTATCATQRLAAFLRHSSPNFGAIPSSTPVGSNTY-NH2
# modifications: disulfide 2-7; N-terminus assumed
# SMILES: CC[C@H](C)[C@H](NC(=O)[C@H](C)NC(=O)CNC(=O)[C@H](Cc1ccccc1)NC(=O)[C@H](CC(N)=O)NC(=O)[C@@H]1CCCN1C(=O)[C@H](CO)NC(=O)[C@H](CO)NC(=O)[C@H](Cc1c[nH]cn1)NC(=O)[C@H](CCCNC(=N)N)NC(=O)[C@H](CC(C)C)NC(=O)[C@H](Cc1ccccc1)NC(=O)[C@H](C)NC(=O)[C@H](C)NC(=O)[C@H](CC(C)C)NC(=O)[C@H](CCCNC(=N)N)NC(=O)[C@H](CCC(N)=O)NC(=O)[C@@H](NC(=O)[C@H](C)NC(=O)[C@@H]1CSSC[C@H](NC(=O)[C@@H](N)CCCCNC(=O)COCCOCCNC(=O)CC[C@H](NC(=O)CCCCCCCCCCCCCCCCCCC(=O)O)C(=O)O)C(=O)N[C@@H](CC(N)=O)C(=O)N[C@@H]([C@@H](C)O)C(=O)N[C@@H](C)C(=O)N[C@@H]([C@@H](C)O)C(=O)N1)[C@@H](C)O)C(=O)N1CCC[C@H]1C(=O)N[C@@H](CO)C(=O)N[C@@H](CO)C(=O)N[C@H](C(=O)N1CCC[C@H]1C(=O)N[C@H](C(=O)NCC(=O)N[C@@H](CO)C(=O)N[C@@H](CC(N)=O)C(=O)N[C@H](C(=O)N[C@@H](Cc1ccc(O)cc1)C(N)=O)[C@@H](C)O)C(C)C)[C@@H](C)O
# notes: also called compound 72
# B4: N^ε1-[2-[2-[2-[[(4S)-4-carboxy-4-(19-carboxynonadecanoylamino)butanoyl]amino]ethoxy]ethoxy]acetyl]-[Arg14,Arg17,Pro21,Pro27,Pro31]-h-amylin (peptide)
# peptide: K([AEEA-γGlu-C20 diacid])CNTATCATQRLARFLRHSSPNFGAIPSSTPVGSNTY-NH2
# modifications: disulfide 2-7; N-terminus assumed
# SMILES: CC[C@H](C)[C@H](NC(=O)[C@H](C)NC(=O)CNC(=O)[C@H](Cc1ccccc1)NC(=O)[C@H](CC(N)=O)NC(=O)[C@@H]1CCCN1C(=O)[C@H](CO)NC(=O)[C@H](CO)NC(=O)[C@H](Cc1c[nH]cn1)NC(=O)[C@H](CCCNC(=N)N)NC(=O)[C@H](CC(C)C)NC(=O)[C@H](Cc1ccccc1)NC(=O)[C@H](CCCNC(=N)N)NC(=O)[C@H](C)NC(=O)[C@H](CC(C)C)NC(=O)[C@H](CCCNC(=N)N)NC(=O)[C@H](CCC(N)=O)NC(=O)[C@@H](NC(=O)[C@H](C)NC(=O)[C@@H]1CSSC[C@H](NC(=O)[C@@H](N)CCCCNC(=O)COCCOCCNC(=O)CC[C@H](NC(=O)CCCCCCCCCCCCCCCCCCC(=O)O)C(=O)O)C(=O)N[C@@H](CC(N)=O)C(=O)N[C@@H]([C@@H](C)O)C(=O)N[C@@H](C)C(=O)N[C@@H]([C@@H](C)O)C(=O)N1)[C@@H](C)O)C(=O)N1CCC[C@H]1C(=O)N[C@@H](CO)C(=O)N[C@@H](CO)C(=O)N[C@H](C(=O)N1CCC[C@H]1C(=O)N[C@H](C(=O)NCC(=O)N[C@@H](CO)C(=O)N[C@@H](CC(N)=O)C(=O)N[C@H](C(=O)N[C@@H](Cc1ccc(O)cc1)C(N)=O)[C@@H](C)O)C(C)C)[C@@H](C)O
# notes: also called compound 64
# Biological target: T1, human calcitonin receptor
# Test: ratio of hCTR IC50 to hAmylin-R IC50 (reference: human amylin receptor)
# Procedure: The resulting pellet was resuspended, homogenized and centrifuged (20.000 rpm, 15 min) in a buffer containing 20 mM Na-HEPES and 0.1 mM EDTA (pH 7.4, buffer 2). The resulting pellet was resuspended in buffer 2 and protein concentration was measured (BCA protein Assay, Pierce). The homogenate was kept cold during the whole procedure. The membranes were kept at −80° C. until use. The assay was performed in a 384 well Optiplate (PerkinElmer) in a total volume of 40 ul. Membranes were mixed with SPA beads. Final concentration of membranes 35 ng/μL final and SPA beads was 0.05 mg/well. Test-compounds were dissolved in DMSO and further diluted in assay buffer (50 mM Hepes, pH 7.4, 1 mM CaCl2, 5 mM MgCl₂, 0.1% OA and 0.02% Tween20). […] The final mixture was incubated with shaking at 400 rpm for 120 min at 25° C. prior to centrifugation (1500 rpm, 10 min). Samples were analyzed on TopCounter™ (Packard). The IC₅₀ was calculated using (one site binding competition analysis) GraphPad Prism5 as a measure of receptor affinity.
# Membranes were prepared in the following way; the cells were rinsed with PBS and incubated with Versene for approximately 5 min before harvesting. The cells were flushed with PBS and the cell-suspension was centrifuged for 5 min at 1000 rpm. Cells were homogenized (Ultrathurrax) in a buffer containing 20 mM Na-HEPES and 10 mM EDTA (pH 7.4) and centrifuged at 20.000 rpm for 15 min. The resulting pellet was resuspended, homogenized and centrifuged (20.000 rpm, 15 min) in a buffer containing 20 mM Na-HEPES and 0.1 mM EDTA (pH 7.4, buffer 2). The resulting pellet was resuspended in buffer 2 and protein concentration was measured (BCA protein Assay, Pierce). The homogenate was kept cold during the whole procedure. The membranes were kept at −80° C. until use. Assay was performed in a 384 well Optiplate (PerkinElmer) in a total volume of 40 ul. Membranes were mixed with SPA beads.
row,Binder,Ratio hCT/hAmylin binding
1,B1,79.6
2,B2,74.1
3,B3,247
4,B4,126

# Biological target: T1, human calcitonin receptor
# Test: SPA competition on BHK cell membranes, 125I-calcitonin as radioligand (Assay VII)
# Procedure: Membranes were prepared in the following way; the cells were rinsed with PBS and incubated with Versene for approximately 5 min before harvesting. The cells were flushed with PBS and the cell-suspension was centrifuged for 5 min at 1000 rpm. Cells were homogenized (Ultrathurrax) in a buffer containing 20 mM Na-HEPES and 10 mM EDTA (pH 7.4) and centrifuged at 20.000 rpm for 15 min. The resulting pellet was resuspended, homogenized and centrifuged (20.000 rpm, 15 min) in a buffer containing 20 mM Na-HEPES and 0.1 mM EDTA (pH 7.4, buffer 2). The resulting pellet was resuspended in buffer 2 and protein concentration was measured (BCA protein Assay, Pierce). The homogenate was kept cold during the whole procedure. The membranes were kept at −80° C. until use. Assay was performed in a 384 well Optiplate (PerkinElmer) in a total volume of 40 ul. Membranes were mixed with SPA beads. Final concentration of membranes 35 ng/μL final and Final concentration of SPA beads was 0.05 mg/well. Test-compounds were dissolved in DMSO and further diluted in assay buffer (50 mM Hepes, pH 7.4, 1 mM CaCl2, 5 mM MgCl₂, 0.1% OA and 0.02% Tween20). […] The final mixture was incubated for 120 min with shaking at 400 rpm at 25° C. prior to centrifugation (1500 rpm, 10 min). Samples were analyzed on TopCounter™ (Packard). The […] was calculated using (one site binding competition analysis) GraphPad Prism5 as a measure of receptor affinity.
row,Binder,IC50
1,B1,13.2 nM
2,B2,6.74 nM
3,B3,42.4 nM
4,B4,56 nM
